Measured values reported in article PMC3722096, “Crystal Structure of the N-Acetyltransferase Domain of Human N-Acetyl-L-Glutamate Synthase in Complex with N-Acetyl-L-Glutamate Provides Insights into Its Catalytic and Regulatory Mechanisms” (PLoS ONE, 2013).

What was measured:
[1] = molecular target: NAT domain of mouse NAGS (mouse); test: SEC; analytic gel filtration, Superdex 200 HR 10/30; 100 mM NaH2PO4 pH 7.4, 150 mM NaCl, 10% glycerol, 1 mM β-mercaptoethanol; weights from a standard curve
[2] = molecular target: the molecule itself; test: as above
[3] = molecular target: the molecule itself; test: cross-linking; dimethyl suberimidate (4.5 µg) or suberic acid bis(3-sulfo-N-hydroxysuccinimide ester) sodium salt (9.0 µg), 10 µl of 200 mM triethanolamine pH 8.25, three hours at 298 K; SDS-PAGE, Coomassie (mNAGS) or silver (hNAGS) stain

Row | Molecule | stoichiometry N [3] | also measured
1 | NAT domain of mouse NAGS (domain or fragment) | – | stoichiometry N [1]: 2
2 | human NAGS N-acetyltransferase domain (residues 377-534), as used in gel filtration (domain or fragment, UniProt Q8N159 377-534, looked up, N-acetyltransferase (NAT) domain of human N-acetylglutamate synthase, residues 377-534; also called hNAT; hNAT domain) MLRVRSLDKLDQGRLVDLVNASFGKKLRDDYLASLRPRLHSIYVSEGYNAAAILTMEPVLGGTPYLDKFVVSSSRQGQGSGQMLWECLRRDLQTLFWRSRVTNPINPWYFKHSDGSFSNKQWIFFWFGLADIRDSYELVNHAKGLPDSFHKPASDPGS | – | stoichiometry N [2]: 2
3 | complete human N-acetylglutamate synthase (enzyme, UniProt Q8N159 19-534, looked up, N-acetylglutamate synthase (NAGS, EC 2.3.1.1), human; the printed tetramer weight of 202.4 kDa gives 50.6 kDa a subunit; also called hNAGS; human NAGS) LRGRGGTGGARRLSCGARRRAARGTSPGRRLSTAWSQPQPPPEEYAGADDVSQSPVAEEPSWVPSPRPPVPHESPEPPSGRSLVQRDIQAFLNQCGASPGEARHWLTQFQTCHHSADKPFAVIEVDEEVLKCQQGVSSLAFALAFLQRMDMKPLVVLGLPAPTAPSGCLSFWEAKAQLAKSCKVLVDALRHNAAAAVPFFGGGSVLRAAEPAPHASYGGIVSVETDLLQWCLESGSIPILCPIGETAARRSVLLDSLEVTASLAKALRPTKIIFLNNTGGLRDSSHKVLSNVNLPADLDLVCNAEWVSTKERQQMRLIVDVLSRLPHHSSAVITAASTLLTELFSNKGSGTLFKNAERMLRVRSLDKLDQGRLVDLVNASFGKKLRDDYLASLRPRLHSIYVSEGYNAAAILTMEPVLGGTPYLDKFVVSSSRQGQGSGQMLWECLRRDLQTLFWRSRVTNPINPWYFKHSDGSFSNKQWIFFWFGLADIRDSYELVNHAKGLPDSFHKPASDPGS | 4 | –
4 | complete mouse N-acetylglutamate synthase (enzyme, UniProt Q8R4H7 19-527, looked up, N-acetylglutamate synthase (NAGS, EC 2.3.1.1), mouse; the printed tetramer weight of 195.8 kDa gives 48.95 kDa a subunit; also called mNAGS; mouse NAGS) LRSPGGPGGSRRLSGSARRRGAKSASPGRRLSTARAHAEDAEGAKGRVQSPAVEEPSWTPLPTPLESPAPPAGRSLVQRDIQAFLNQCGASPGEARHWLTQFQTCYHSVDKPFAVMEVDEEVIRCPQAVSRLAFALAFLQRMDMKPLVVLGLPTPTAPSGCLSFWEAKAQLAQSCKVLVDELRHNAATAVPFFGGGSVLSAAEPAPHASYGGIVAVETDLLQWCLESNSIPILCPIGETAARRSVLLDSLEVTASLAKALQPTKIIFLNNSGGLRNNSQKILSNVNLPADLDLVTNAEWLSIKERQQIRLIVDVLSRLPHYSSAVITAASTLLTELFSNKGCGTLFKNAERMLRVRNLDSLDQGRLVNLVNASFGKKLREDYLESLRPRLHSIYVSEGYNAAAILTVEPVLGGTPYLDKFVVSSSRQGQGSGQMLWECLRRDLQTLFWRSRVTNPINPWYFKHSDGSFSNKQWIFFWFGLADIRDSYELVNHAKGLPDSFCKPASDPGS | 4 | –
